We go through 167 variants from the RNAGym collection of RNA variant scans (doi:10.7554/elife.80360).

B1: CPEB3 Ribozyme (parent)
chain: GGGGGCCACAGCAGAAGCGUUCACGUCGCGGCCCCUGUCAGAUUCUGGUGAAUCUGCGAAUUCUGCUGU

The variants in this series derive from B1. Kind of series: self-cleavage, relative activity (ratio to wild type); higher = more cleavage; co-transcriptional.
A10C C27A: the self-cleavage was found to be 0.666.

With A10C C27U, the self-cleavage worked out at 0.508.

With A10C U67G, the self-cleavage was 1.03.

Regarding A10C U67C, the self-cleavage turned out to be 1.01.

In the case of A10G A40C, the self-cleavage is 0.201.

As for A10G A40G, the self-cleavage came to 0.728.

On to A10C C35G, for which the self-cleavage was 0.631.

Regarding A10C C35A, the self-cleavage stood at 0.325.

Turning to A10C C35U, the self-cleavage came to 0.992.

Consider C9U G58C, for which the self-cleavage was 1.02.

As for C9U G48U, the self-cleavage turned out to be 1.03.

With C9U G48A, the self-cleavage came out at 1.03.

Take A10C C34A: the self-cleavage came out at 0.981.

For the variant A10C C34U, the self-cleavage worked out at 0.986.

Turning to C9U A13C, the self-cleavage was determined as 0.925.

With C9U A13U, the self-cleavage turned out to be 0.966.

As for C9U G56C, the self-cleavage is 0.959.

Take C9U G56A: the self-cleavage stood at 0.992.

With A10C C18G, the self-cleavage is 0.196.

Take A10C U55C: the self-cleavage came out at 0.911.

For the variant A10C U55A, the self-cleavage was 0.824.

With A10C U53C, the self-cleavage stood at 0.863.

For A10C U53A, the self-cleavage was 0.976.

As to C9G U61C, the self-cleavage stood at 0.83.

In the case of C9G U61A, the self-cleavage amounted to 1.01.

With C9U G19A, the self-cleavage amounted to 0.249.

Consider C9U G19U, for which the self-cleavage came out at 0.855.

Turning to C9G C34G, the self-cleavage turned out to be 0.994.

Regarding C9G G28U, the self-cleavage is 0.104.

Consider A10C A52G, for which the self-cleavage amounted to 0.988.

For the variant A10C A15U, the self-cleavage came to 0.77.

For A10C A15C, the self-cleavage is 0.771.

For the variant A10C A15G, the self-cleavage turned out to be 0.947.

With C9G G58U, the self-cleavage worked out at 1.04.

Consider C9G G58C, for which the self-cleavage is 0.984.

Turning to C9U C24U, the self-cleavage amounted to 0.888.

As for C9U C24A, the self-cleavage came out at 0.827.

As to C9U C24G, the self-cleavage is 0.535.

For the variant A10C G17C, the self-cleavage turned out to be 0.0999.

Take A10C G17A: the self-cleavage was 0.48.

For A10C G37U, the self-cleavage worked out at 0.244.

Consider A10C G37C, for which the self-cleavage is 0.23.

For A10C C29G, the self-cleavage is 0.165.

A10C C29A: the self-cleavage was determined as 0.596.

Regarding C9G U20G, the self-cleavage worked out at 0.212.

For C9G U20A, the self-cleavage worked out at 0.0617.

On to C9U G47A, for which the self-cleavage was 1.06.

On to C9U G68A, for which the self-cleavage stood at 1.05.

In the case of C9U G68U, the self-cleavage was found to be 1.02.

Turning to A10C A40U, the self-cleavage was 0.867.

Consider A10C A40C, for which the self-cleavage came out at 0.378.

As for C9G C35G, the self-cleavage worked out at 0.758.

Regarding C9G C35U, the self-cleavage turned out to be 0.964.

Take C9G G65U: the self-cleavage was found to be 0.65.

Turning to C9G G65A, the self-cleavage is 0.968.

Take C9G G65C: the self-cleavage is 0.585.

With C9U C33A, the self-cleavage turned out to be 0.994.

On to C9U C33U, for which the self-cleavage was found to be 0.996.

As to C9G G47C, the self-cleavage is 1.01.

On to A10C A59U, for which the self-cleavage was found to be 0.82.

For C9U C34A, the self-cleavage was determined as 1.01.

C9U C34G: the self-cleavage was determined as 1.01.

Regarding C9U U26C, the self-cleavage was determined as 0.999.

A10C C22U: the self-cleavage was determined as 0.351.

In the case of A10C C22G, the self-cleavage amounted to 0.141.

As for A10C C45A, the self-cleavage turned out to be 0.97.

Take A10C C45U: the self-cleavage amounted to 1.

Consider A10C A51U, for which the self-cleavage amounted to 1.02.

As for A10C A51G, the self-cleavage worked out at 1.06.

Consider A10C A51C, for which the self-cleavage came out at 0.978.

Take C9U G17A: the self-cleavage turned out to be 0.817.

Take A10C C63U: the self-cleavage is 1.02.

Consider A10C C63A, for which the self-cleavage was 0.676.

In the case of C9G C27U, the self-cleavage was found to be 0.888.

C9U A51G: the self-cleavage stood at 1.02.

Turning to C9U A51C, the self-cleavage amounted to 1.03.

Take C9U A15C: the self-cleavage turned out to be 0.989.

As for C9G G17C, the self-cleavage turned out to be 0.176.

Consider C9G G11A, for which the self-cleavage worked out at 0.882.

Regarding C9U U61A, the self-cleavage came out at 1.

Consider C9U U61G, for which the self-cleavage amounted to 0.985.

As for C9U C22U, the self-cleavage is 0.403.

Take C9G C39G: the self-cleavage worked out at 0.981.

Consider C9G C39U, for which the self-cleavage turned out to be 0.878.

As for C9G C39A, the self-cleavage amounted to 0.912.

For the variant C9G C32A, the self-cleavage worked out at 0.983.

Regarding C9G C32U, the self-cleavage was determined as 0.992.

For the variant C9G C32G, the self-cleavage amounted to 0.665.

On to C9G C63A, for which the self-cleavage worked out at 0.909.

In the case of C9G C63U, the self-cleavage was determined as 0.973.

For the variant C9U C66U, the self-cleavage was 1.05.

As to C9U C66A, the self-cleavage was 0.968.

Take C9U U62G: the self-cleavage was 0.987.

Turning to A10C U64G, the self-cleavage was determined as 0.804.

For the variant C9G U46A, the self-cleavage was found to be 1.03.

For the variant C9U U38C, the self-cleavage was 1.02.

Regarding C9U U38G, the self-cleavage amounted to 0.306.

For the variant C9U U38A, the self-cleavage amounted to 0.931.

For C9G C33G, the self-cleavage was 0.925.

Turning to C9G C33U, the self-cleavage came to 1.04.

With A10C U44C, the self-cleavage is 0.92.

For A10C U44A, the self-cleavage turned out to be 0.959.

As for A10C G58C, the self-cleavage amounted to 0.965.

Regarding A10C G58U, the self-cleavage was found to be 0.999.

In the case of C9U C39G, the self-cleavage is 0.962.

Turning to C9U C39A, the self-cleavage was determined as 0.912.

With C9G G25U, the self-cleavage came to 0.207.

For C9G G25C, the self-cleavage worked out at 0.108.

In the case of C9G G25A, the self-cleavage turned out to be 0.216.

With C9U C29A, the self-cleavage was 0.922.

Regarding C9U C29G, the self-cleavage amounted to 0.923.

Turning to A10C G30A, the self-cleavage came to 0.994.

On to A10C G30U, for which the self-cleavage stood at 0.753.

A10C G30C: the self-cleavage worked out at 0.923.

Turning to A10C G56C, the self-cleavage amounted to 0.772.

On to C9G U38G, for which the self-cleavage was found to be 0.343.

Turning to C9G U38A, the self-cleavage was found to be 0.988.

On to C9U C57U, for which the self-cleavage was 0.38.

C9U C57A: the self-cleavage is 0.32.

For the variant C9G C66G, the self-cleavage worked out at 0.905.

As to C9G C66U, the self-cleavage was determined as 0.967.

With A10C G14A, the self-cleavage turned out to be 0.363.

Take A10C G14U: the self-cleavage is 0.411.

Regarding A10C G68A, the self-cleavage turned out to be 1.03.

Consider A10C G68U, for which the self-cleavage is 1.03.

Consider A10C G68C, for which the self-cleavage came to 1.04.

A10C C32U: the self-cleavage is 1.04.

A10C C32A: the self-cleavage came to 0.908.

As to C9U A60G, the self-cleavage was 0.983.

Take C9U A60C: the self-cleavage is 0.303.

In the case of A10G A13C, the self-cleavage stood at 0.182.

C9U A40G: the self-cleavage is 1.03.

On to C9U A40U, for which the self-cleavage is 0.915.

Consider C9U C27U, for which the self-cleavage was 0.788.

With C9U C27A, the self-cleavage came out at 0.891.

With C9G U26C, the self-cleavage was found to be 0.964.

Consider C9G U26A, for which the self-cleavage was 0.912.

Regarding C9G U26G, the self-cleavage was determined as 0.93.

In the case of A10C C33G, the self-cleavage came out at 0.988.

For the variant A10C C33A, the self-cleavage was 0.965.

As to C9G U53C, the self-cleavage turned out to be 0.956.

In the case of C9G U53G, the self-cleavage is 0.961.

C9U C63G: the self-cleavage was 0.88.

With C9U C63U, the self-cleavage was 0.982.

For C9U C63A, the self-cleavage came to 0.968.

Consider C9U A59G, for which the self-cleavage was 0.986.

For A10G A15U, the self-cleavage was found to be 0.253.

For A10G A15G, the self-cleavage was 0.786.

Consider A10G A15C, for which the self-cleavage turned out to be 0.254.

With C9U U55C, the self-cleavage is 1.02.

As to C9U U55A, the self-cleavage was determined as 0.932.

As to C9U U55G, the self-cleavage came to 0.953.

On to C9U A10U, for which the self-cleavage came out at 0.987.

On to C9U A10C, for which the self-cleavage is 1.06.

Take C9U A10G: the self-cleavage came out at 1.04.

Take C9G U62C: the self-cleavage was found to be 0.96.

Turning to C9G U62A, the self-cleavage was found to be 0.977.

Turning to C9G U62G, the self-cleavage is 0.849.

On to C9G U36G, for which the self-cleavage was found to be 0.245.

On to C9G U36C, for which the self-cleavage was 1.02.

As to A10C U46G, the self-cleavage was found to be 0.953.

Take A10C U46A: the self-cleavage stood at 1.03.

Regarding A10C A23U, the self-cleavage stood at 0.983.

Regarding A10C A23C, the self-cleavage was determined as 0.938.

C9U U67A: the self-cleavage was determined as 1.01.

For C9U U67C, the self-cleavage was found to be 1.02.

In the case of C9U U67G, the self-cleavage was 1.01.
